{
  "source": "patent US20190359693A1",
  "about": "(Janssen / Centocor, published 2019)",
  "experiment_in_all_cases": "cell-based or functional assay",
  "key": {"[1]": {"biological_target": "HA of H3N2 A/HK/1/68 (L331I, E443K) (influenza A virus)"}, "[2]": {"biological_target": "HA of H3N2 A/HK/1/68 (N85, E443K) (influenza A virus)"}, "[3]": {"biological_target": "HA of H3N? A/Env/MPJ193/09 (influenza A virus)"}, "[4]": {"biological_target": "HA of H3N2 A/HK/1/68 (E443K) (influenza A virus)"}, "[5]": {"biological_target": "HA of H3N2 A/HK/1/68 (R201G, L331I, E443K) (influenza A virus)"}, "[6]": {"biological_target": "HA of H3N2 A/HK/1/68 (G379R) (influenza A virus)"}, "[7]": {"biological_target": "HA of H3N2 A/HK/1/68 (I395V) (influenza A virus)"}, "[8]": {"biological_target": "HA of H3N2 A/HK/1/68 (D375N, I395V) (influenza A virus)"}, "[9]": {"biological_target": "HA of H3N? A/Env/MPJ193/09 (influenza A virus)", "remark": "listed apart in the source"}},
  "note": "Like-named read-outs stand apart in the source and are kept apart here.",
  "data": [
    {"binder": "SD1036 (VHH, llama sdAb) VHH: EVQLVESGGGLVQAGGSLKLSCAASGRTYAMGWFRQAPGKEREFVAHINALGTRTYYSDSVKGRFTISRDNAKNTEYLEMNNLKPEDTAVYYCTAQGQWRAAPVAVAAEYEFWGQGTQVTVSS", "values": [
      {"measurement": "VNA titer", "setting": "[1]", "result": "> 1000", "unit": "nM"},
      {"measurement": "VNA titer", "setting": "[2]", "result": "> 1000", "unit": "nM"},
      {"measurement": "VNA titer", "setting": "[3]", "result": 41, "unit": "nM"},
      {"measurement": "VNA titer", "setting": "[4]", "result": "> 1000", "unit": "nM"},
      {"measurement": "VNA titer", "setting": "[5]", "result": "> 1000", "unit": "nM"},
      {"measurement": "VNA titer", "setting": "[6]", "result": "> 1000", "unit": "nM"},
      {"measurement": "VNA titer", "setting": "[7]", "result": "> 1000", "unit": "nM"},
      {"measurement": "VNA titer", "setting": "[8]", "result": "> 1000", "unit": "nM"}
    ]},
    {"binder": "SD1046 (VHH) VHH: EVQLVESGGGLVQAGDSLRISCAASGRTLSIYSMGWFRQAPGKEREFVATIGWNSGRTFYPDSLKGRFTISRDNARNTLYLQMNNLRPEDTAVYYCAAAKGPLRLSSQADYWGQGTQVTVSS", "values": [
      {"measurement": "VNA titer", "setting": "[1]", "result": 202, "unit": "nM"},
      {"measurement": "VNA titer", "setting": "[2]", "result": 202, "unit": "nM"},
      {"measurement": "VNA titer", "setting": "[4]", "result": 202, "unit": "nM"},
      {"measurement": "VNA titer", "setting": "[5]", "result": 339, "unit": "nM"},
      {"measurement": "VNA titer", "setting": "[6]", "result": 571, "unit": "nM"},
      {"measurement": "VNA titer", "setting": "[7]", "result": "> 1000", "unit": "nM"},
      {"measurement": "VNA titer", "setting": "[8]", "result": "> 1000", "unit": "nM"}
    ]},
    {"binder": "SD1038 (VHH, llama sdAb) VHH: EVQLVESGGGLVQPGGSLRLSCAVSISIFDIYAMDWYRQAPGKQRDLVATSFRDGSTNYADSVKGRFTISRDNAKNTLYLQMNSLKPEDTAVYLCHVSLYRDPLGVAGGMGVYWGKGALVTVSS", "values": [
      {"measurement": "VNA titer", "setting": "[9]", "result": 185, "unit": "nM"}
    ]}
  ]
}
